Test results as given in patent US20140087995A1 (published 2014).
Numbered stars: 1 amine (or outer) side, 2 acyl side, 3 side chain; on linkers, the order of the positions; unused ones are H or OH. Bridge positions count the residues as written; N and C are the ends. Side chains are listed from the residue outwards. Ends that are not written are not given here. * marks the point of attachment. C20 diacid = O=C(O)CCCCCCCCCCCCCCCCCCC(=O)*; γGlu = O=C(O)[C@H](CCC(=O)[*:2])N[*:1]

T1: human calcitonin receptor (human, UniProt P30988 25-474)
T1 construct: whole, on cells; also called hCTR; hCT
T1 sequence (looked up): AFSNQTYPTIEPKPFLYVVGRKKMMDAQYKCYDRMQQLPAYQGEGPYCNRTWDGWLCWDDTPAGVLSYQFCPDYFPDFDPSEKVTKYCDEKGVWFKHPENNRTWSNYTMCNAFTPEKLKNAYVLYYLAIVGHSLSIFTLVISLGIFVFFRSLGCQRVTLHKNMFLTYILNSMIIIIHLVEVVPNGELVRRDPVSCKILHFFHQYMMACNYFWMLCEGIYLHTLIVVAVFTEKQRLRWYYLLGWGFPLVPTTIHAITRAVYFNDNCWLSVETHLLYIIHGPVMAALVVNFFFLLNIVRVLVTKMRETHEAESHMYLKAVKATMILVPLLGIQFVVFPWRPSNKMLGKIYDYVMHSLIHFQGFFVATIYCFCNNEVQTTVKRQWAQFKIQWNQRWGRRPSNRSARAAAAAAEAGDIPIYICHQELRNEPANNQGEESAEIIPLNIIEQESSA


Tests used:
[1] = target: T1, human calcitonin receptor; experiment: ratio of IC50 at human calcitonin receptor to IC50 at human amylin receptor (SPA competition assays)
How it was run: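 Competition binding by SPA with cell membranes (35 ng/μL) and SPA beads in 50 mM Hepes pH 7.4 with 1 mM CaCl2, 5 mM MgCl2, 0.1% OA and 0.02% Tween20. Incubated 120 min at 25 °C with shaking, then counted.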

[2] = target: T1, human calcitonin receptor; experiment: SPA radioligand competition (125I-calcitonin), membranes of BHK cells with human calcitonin receptor
How it was run: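 BHK hCTR membranes 35 ng/μL + SPA beads 0.05 mg/well; buffer 50 mM Hepes pH 7.4, 1 mM CaCl2, 5 mM MgCl₂, 0.1% OA, 0.02% Tween20. 120 min, 25° C., shaking. Scintillation count; IC50 by one-site binding competition.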

Binder	Ratio hCT/hAmylin binding [1]	IC50 [2] [nM]
K([γGlu-C20 diacid])CNTATCATQRLARFLRHSSPNFGAIPSSTNVGSNTY-NH2 (disulfide 2-7; N-terminus assumed; SMILES CC[C@H](C)[C@H](NC(=O)[C@H](C)NC(=O)CNC(=O)[C@H](Cc1ccccc1)NC(=O)[C@H](CC(N)=O)NC(=O)[C@@H]1CCCN1C(=O)[C@H](CO)NC(=O)[C@H](CO)NC(=O)[C@H](Cc1c[nH]cn1)NC(=O)[C@H](CCCNC(=N)N)NC(=O)[C@H](CC(C)C)NC(=O)[C@H](Cc1ccccc1)NC(=O)[C@H](CCCNC(=N)N)NC(=O)[C@H](C)NC(=O)[C@H](CC(C)C)NC(=O)[C@H](CCCNC(=N)N)NC(=O)[C@H](CCC(N)=O)NC(=O)[C@@H](NC(=O)[C@H](C)NC(=O)[C@@H]1CSSC[C@H](NC(=O)[C@@H](N)CCCCNC(=O)CC[C@H](NC(=O)CCCCCCCCCCCCCCCCCCC(=O)O)C(=O)O)C(=O)N[C@@H](CC(N)=O)C(=O)N[C@@H]([C@@H](C)O)C(=O)N[C@@H](C)C(=O)N[C@@H]([C@@H](C)O)C(=O)N1)[C@@H](C)O)C(=O)N1CCC[C@H]1C(=O)N[C@@H](CO)C(=O)N[C@@H](CO)C(=O)N[C@H](C(=O)N[C@@H](CC(N)=O)C(=O)N[C@H](C(=O)NCC(=O)N[C@@H](CO)C(=O)N[C@@H](CC(N)=O)C(=O)N[C@H](C(=O)N[C@@H](Cc1ccc(O)cc1)C(N)=O)[C@@H](C)O)C(C)C)[C@@H](C)O, also called compound 83) [N^ε1-[(4S)-4-carboxy-4-(19-carboxynonadecanoylamino)butanoyl]-[Arg14,Arg17,Pro21,Pro27]-h-amylin]	146	137
K([γGlu-C20 diacid])CNTATCATQRLAEFLRHSSPNFGAIPSSTNVGRETY-NH2 (disulfide 2-7; N-terminus assumed; SMILES CC[C@H](C)[C@H](NC(=O)[C@H](C)NC(=O)CNC(=O)[C@H](Cc1ccccc1)NC(=O)[C@H](CC(N)=O)NC(=O)[C@@H]1CCCN1C(=O)[C@H](CO)NC(=O)[C@H](CO)NC(=O)[C@H](Cc1c[nH]cn1)NC(=O)[C@H](CCCNC(=N)N)NC(=O)[C@H](CC(C)C)NC(=O)[C@H](Cc1ccccc1)NC(=O)[C@H](CCC(=O)O)NC(=O)[C@H](C)NC(=O)[C@H](CC(C)C)NC(=O)[C@H](CCCNC(=N)N)NC(=O)[C@H](CCC(N)=O)NC(=O)[C@@H](NC(=O)[C@H](C)NC(=O)[C@@H]1CSSC[C@H](NC(=O)[C@@H](N)CCCCNC(=O)CC[C@H](NC(=O)CCCCCCCCCCCCCCCCCCC(=O)O)C(=O)O)C(=O)N[C@@H](CC(N)=O)C(=O)N[C@@H]([C@@H](C)O)C(=O)N[C@@H](C)C(=O)N[C@@H]([C@@H](C)O)C(=O)N1)[C@@H](C)O)C(=O)N1CCC[C@H]1C(=O)N[C@@H](CO)C(=O)N[C@@H](CO)C(=O)N[C@H](C(=O)N[C@@H](CC(N)=O)C(=O)N[C@H](C(=O)NCC(=O)N[C@@H](CCCNC(=N)N)C(=O)N[C@@H](CCC(=O)O)C(=O)N[C@H](C(=O)N[C@@H](Cc1ccc(O)cc1)C(N)=O)[C@@H](C)O)C(C)C)[C@@H](C)O)	28.5	6.62
K([γGlu-C20 diacid])CNTATCATQRLAEFLRHSSPNFGAIPSSTNVGPRTY-NH2 (disulfide 2-7; N-terminus assumed; SMILES CC[C@H](C)[C@H](NC(=O)[C@H](C)NC(=O)CNC(=O)[C@H](Cc1ccccc1)NC(=O)[C@H](CC(N)=O)NC(=O)[C@@H]1CCCN1C(=O)[C@H](CO)NC(=O)[C@H](CO)NC(=O)[C@H](Cc1c[nH]cn1)NC(=O)[C@H](CCCNC(=N)N)NC(=O)[C@H](CC(C)C)NC(=O)[C@H](Cc1ccccc1)NC(=O)[C@H](CCC(=O)O)NC(=O)[C@H](C)NC(=O)[C@H](CC(C)C)NC(=O)[C@H](CCCNC(=N)N)NC(=O)[C@H](CCC(N)=O)NC(=O)[C@@H](NC(=O)[C@H](C)NC(=O)[C@@H]1CSSC[C@H](NC(=O)[C@@H](N)CCCCNC(=O)CC[C@H](NC(=O)CCCCCCCCCCCCCCCCCCC(=O)O)C(=O)O)C(=O)N[C@@H](CC(N)=O)C(=O)N[C@@H]([C@@H](C)O)C(=O)N[C@@H](C)C(=O)N[C@@H]([C@@H](C)O)C(=O)N1)[C@@H](C)O)C(=O)N1CCC[C@H]1C(=O)N[C@@H](CO)C(=O)N[C@@H](CO)C(=O)N[C@H](C(=O)N[C@@H](CC(N)=O)C(=O)N[C@H](C(=O)NCC(=O)N1CCC[C@H]1C(=O)N[C@@H](CCCNC(=N)N)C(=O)N[C@H](C(=O)N[C@@H](Cc1ccc(O)cc1)C(N)=O)[C@@H](C)O)C(C)C)[C@@H](C)O)	38.6	6.3
K([γGlu-C20 diacid])CNTATCATQRLANFLRHSSPNFGAIPSSTNVGRNTY-NH2 (disulfide 2-7; N-terminus assumed; SMILES CC[C@H](C)[C@H](NC(=O)[C@H](C)NC(=O)CNC(=O)[C@H](Cc1ccccc1)NC(=O)[C@H](CC(N)=O)NC(=O)[C@@H]1CCCN1C(=O)[C@H](CO)NC(=O)[C@H](CO)NC(=O)[C@H](Cc1c[nH]cn1)NC(=O)[C@H](CCCNC(=N)N)NC(=O)[C@H](CC(C)C)NC(=O)[C@H](Cc1ccccc1)NC(=O)[C@H](CC(N)=O)NC(=O)[C@H](C)NC(=O)[C@H](CC(C)C)NC(=O)[C@H](CCCNC(=N)N)NC(=O)[C@H](CCC(N)=O)NC(=O)[C@@H](NC(=O)[C@H](C)NC(=O)[C@@H]1CSSC[C@H](NC(=O)[C@@H](N)CCCCNC(=O)CC[C@H](NC(=O)CCCCCCCCCCCCCCCCCCC(=O)O)C(=O)O)C(=O)N[C@@H](CC(N)=O)C(=O)N[C@@H]([C@@H](C)O)C(=O)N[C@@H](C)C(=O)N[C@@H]([C@@H](C)O)C(=O)N1)[C@@H](C)O)C(=O)N1CCC[C@H]1C(=O)N[C@@H](CO)C(=O)N[C@@H](CO)C(=O)N[C@H](C(=O)N[C@@H](CC(N)=O)C(=O)N[C@H](C(=O)NCC(=O)N[C@@H](CCCNC(=N)N)C(=O)N[C@@H](CC(N)=O)C(=O)N[C@H](C(=O)N[C@@H](Cc1ccc(O)cc1)C(N)=O)[C@@H](C)O)C(C)C)[C@@H](C)O, also called compound 79) [N^ε1-[(4S)-4-carboxy-4-(19-carboxynonadecanoylamino)butanoyl]-[Arg17,Pro21,Pro27,Arg34]-h-amylin]	46.1	36.4

More lines, now with the values ahead:

Ratio hCT/hAmylin binding [1]	IC50 [2] [nM]	Binder
21.2	3.8	K([γGlu-C20 diacid])CNTATCATQRLAEFLRHSSPNFGAIPSSTNVGPHTY-NH2 (disulfide 2-7)
91.8	80.4	K([γGlu-C20 diacid])CNTATCATQRLAHFLRHSSPNFGAIPSSTNVGRNTY-NH2 (disulfide 2-7; N-terminus assumed; SMILES CC[C@H](C)[C@H](NC(=O)[C@H](C)NC(=O)CNC(=O)[C@H](Cc1ccccc1)NC(=O)[C@H](CC(N)=O)NC(=O)[C@@H]1CCCN1C(=O)[C@H](CO)NC(=O)[C@H](CO)NC(=O)[C@H](Cc1c[nH]cn1)NC(=O)[C@H](CCCNC(=N)N)NC(=O)[C@H](CC(C)C)NC(=O)[C@H](Cc1ccccc1)NC(=O)[C@H](Cc1c[nH]cn1)NC(=O)[C@H](C)NC(=O)[C@H](CC(C)C)NC(=O)[C@H](CCCNC(=N)N)NC(=O)[C@H](CCC(N)=O)NC(=O)[C@@H](NC(=O)[C@H](C)NC(=O)[C@@H]1CSSC[C@H](NC(=O)[C@@H](N)CCCCNC(=O)CC[C@H](NC(=O)CCCCCCCCCCCCCCCCCCC(=O)O)C(=O)O)C(=O)N[C@@H](CC(N)=O)C(=O)N[C@@H]([C@@H](C)O)C(=O)N[C@@H](C)C(=O)N[C@@H]([C@@H](C)O)C(=O)N1)[C@@H](C)O)C(=O)N1CCC[C@H]1C(=O)N[C@@H](CO)C(=O)N[C@@H](CO)C(=O)N[C@H](C(=O)N[C@@H](CC(N)=O)C(=O)N[C@H](C(=O)NCC(=O)N[C@@H](CCCNC(=N)N)C(=O)N[C@@H](CC(N)=O)C(=O)N[C@H](C(=O)N[C@@H](Cc1ccc(O)cc1)C(N)=O)[C@@H](C)O)C(C)C)[C@@H](C)O, also called compound 85)
13.3	1.86	K([γGlu-C20 diacid])CNTATCATQRLAEFLRHSSPNFGAIPSSTNVGPETY-NH2 (disulfide 2-7; N-terminus assumed; SMILES CC[C@H](C)[C@H](NC(=O)[C@H](C)NC(=O)CNC(=O)[C@H](Cc1ccccc1)NC(=O)[C@H](CC(N)=O)NC(=O)[C@@H]1CCCN1C(=O)[C@H](CO)NC(=O)[C@H](CO)NC(=O)[C@H](Cc1c[nH]cn1)NC(=O)[C@H](CCCNC(=N)N)NC(=O)[C@H](CC(C)C)NC(=O)[C@H](Cc1ccccc1)NC(=O)[C@H](CCC(=O)O)NC(=O)[C@H](C)NC(=O)[C@H](CC(C)C)NC(=O)[C@H](CCCNC(=N)N)NC(=O)[C@H](CCC(N)=O)NC(=O)[C@@H](NC(=O)[C@H](C)NC(=O)[C@@H]1CSSC[C@H](NC(=O)[C@@H](N)CCCCNC(=O)CC[C@H](NC(=O)CCCCCCCCCCCCCCCCCCC(=O)O)C(=O)O)C(=O)N[C@@H](CC(N)=O)C(=O)N[C@@H]([C@@H](C)O)C(=O)N[C@@H](C)C(=O)N[C@@H]([C@@H](C)O)C(=O)N1)[C@@H](C)O)C(=O)N1CCC[C@H]1C(=O)N[C@@H](CO)C(=O)N[C@@H](CO)C(=O)N[C@H](C(=O)N[C@@H](CC(N)=O)C(=O)N[C@H](C(=O)NCC(=O)N1CCC[C@H]1C(=O)N[C@@H](CCC(=O)O)C(=O)N[C@H](C(=O)N[C@@H](Cc1ccc(O)cc1)C(N)=O)[C@@H](C)O)C(C)C)[C@@H](C)O)
